# Paper PMC6193142
# Target: fibrillin (of fibrillin microfibrils purified from the ciliary zonule) (bovine (endogenous in ciliary zonule)) (UniProt P98133)
# Assay: negative-stain TEM with single-particle 3D reconstruction; microfibrils purified from bovine ciliary zonule; 2797 repeat particles; 2-fold symmetry imposed along the microfibril axis; sub-models of bead, arm and interbead; number of chains judged from volume and from fitting domain models into the interbead density
substance,measurement,value
fibrillin (of fibrillin microfibrils purified from the ciliary zonule) (from UniProt P98133 25-2871) (natural protein),stoichiometry N (molecules per microfibril repeat),8
